Each block holds one binder with its values, some of them ahead of it.
Experiments:
Experiment in all cases: cell-based or functional assay
[1] = target: T1, IL10Rα/IL2Rγ receptor (human, UniProt Q13651 22-578; P31785 23-369)
T1 sequence (looked up) 1: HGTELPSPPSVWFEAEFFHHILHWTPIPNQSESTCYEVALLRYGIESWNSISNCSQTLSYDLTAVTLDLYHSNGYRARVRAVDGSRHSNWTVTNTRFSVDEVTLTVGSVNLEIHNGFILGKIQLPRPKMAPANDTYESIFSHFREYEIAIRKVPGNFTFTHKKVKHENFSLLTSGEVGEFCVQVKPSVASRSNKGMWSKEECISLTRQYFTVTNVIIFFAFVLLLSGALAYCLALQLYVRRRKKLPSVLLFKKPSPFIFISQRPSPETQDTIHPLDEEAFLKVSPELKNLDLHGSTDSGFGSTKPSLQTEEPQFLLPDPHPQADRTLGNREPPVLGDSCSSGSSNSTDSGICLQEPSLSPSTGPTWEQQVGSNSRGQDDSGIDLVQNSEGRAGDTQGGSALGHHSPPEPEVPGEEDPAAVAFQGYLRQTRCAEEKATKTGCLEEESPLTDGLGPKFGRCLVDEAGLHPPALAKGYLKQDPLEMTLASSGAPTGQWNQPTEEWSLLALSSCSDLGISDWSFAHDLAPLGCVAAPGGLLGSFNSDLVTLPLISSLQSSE
T1 sequence (looked up) 2: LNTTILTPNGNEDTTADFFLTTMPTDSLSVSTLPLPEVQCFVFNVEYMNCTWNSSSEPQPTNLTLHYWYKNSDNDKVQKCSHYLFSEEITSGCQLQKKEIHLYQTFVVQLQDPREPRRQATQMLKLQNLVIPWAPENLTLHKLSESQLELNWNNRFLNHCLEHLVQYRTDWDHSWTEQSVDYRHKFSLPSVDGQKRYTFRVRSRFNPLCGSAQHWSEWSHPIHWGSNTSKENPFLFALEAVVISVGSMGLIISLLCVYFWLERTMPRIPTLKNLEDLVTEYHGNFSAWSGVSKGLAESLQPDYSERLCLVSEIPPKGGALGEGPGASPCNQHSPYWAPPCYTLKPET

[2] = target: T1, IL10Rα/IL2Rγ receptor; remark: listed apart in the source
[3] = target: T1, IL10Rα/IL2Rγ receptor; remark: listed apart in the source
[4] = target: T1, IL10Rα/IL2Rγ receptor; remark: listed apart in the source
[5] = target: T1, IL10Rα/IL2Rγ receptor; remark: listed apart in the source
[6] = target: T1, IL10Rα/IL2Rγ receptor; remark: listed apart in the source

- pSTAT3 MFI, CD8 T cells, 0.0001 nM (unstimulated 1446) [1]: 1390 MFI
- pSTAT3 MFI, CD8 T cells, 0.001 nM (unstimulated 1446) [1]: 1370 MFI
- pSTAT3 MFI, CD8 T cells, 0.01 nM (unstimulated 1446) [1]: 1380 MFI
- pSTAT3 MFI, CD8 T cells, 0.1 nM (unstimulated 1446) [1]: 1590 MFI
- pSTAT3 MFI, CD8 T cells, 1 nM (unstimulated 1446) [1]: 3260 MFI
- pSTAT3 MFI, CD8 T cells, 10 nM (unstimulated 1446) [1]: 4850 MFI
- pSTAT3 MFI, CD8 T cells, 100 nM (unstimulated 1446) [1]: 5020 MFI
- pSTAT3 MFI, B cells, 0.0001 nM (unstimulated 1193.5) [2]: 1110 MFI
- pSTAT3 MFI, B cells, 0.001 nM (unstimulated 1193.5) [2]: 1100 MFI
- pSTAT3 MFI, B cells, 0.01 nM (unstimulated 1193.5) [2]: 1090 MFI
- pSTAT3 MFI, B cells, 0.1 nM (unstimulated 1193.5) [2]: 1110 MFI
- pSTAT3 MFI, B cells, 1 nM (unstimulated 1193.5) [2]: 1290 MFI
- pSTAT3 MFI, B cells, 10 nM (unstimulated 1193.5) [2]: 1840 MFI
- pSTAT3 MFI, B cells, 100 nM (unstimulated 1193.5) [2]: 1850 MFI
- pSTAT3 MFI, B cells, 100 nM (unstimulated 1045) [3]: 1660 MFI
- pSTAT3 MFI, CD4+ T cells, 100 nM (unstimulated 1778) [3]: 6350 MFI
- pSTAT3 MFI, CD8+ T cells, 100 nM (unstimulated 1288) [3]: 4510 MFI
- pSTAT3 MFI, Monocytes, 100 nM (unstimulated 1787) [3]: 2350 MFI
- pSTAT3 MFI, NK cells, 100 nM (unstimulated 1149) [3]: 1880 MFI
- pSTAT3 MFI, Monocytes, 0.0001 nM (unstimulated 2116) [4]: 1990 MFI
- pSTAT3 MFI, Monocytes, 0.001 nM (unstimulated 2116) [4]: 1970 MFI
- pSTAT3 MFI, Monocytes, 0.01 nM (unstimulated 2116) [4]: 1950 MFI
- pSTAT3 MFI, Monocytes, 0.1 nM (unstimulated 2116) [4]: 1960 MFI
- pSTAT3 MFI, Monocytes, 1 nM (unstimulated 2116) [4]: 2110 MFI
- pSTAT3 MFI, Monocytes, 10 nM (unstimulated 2116) [4]: 2470 MFI
- pSTAT3 MFI, Monocytes, 100 nM (unstimulated 2116) [4]: 2470 MFI
- pSTAT3 MFI, CD4 T cells, 0.0001 nM (unstimulated 1887) [5]: 1800 MFI
- pSTAT3 MFI, CD4 T cells, 0.001 nM (unstimulated 1887) [5]: 1800 MFI
- pSTAT3 MFI, CD4 T cells, 0.01 nM (unstimulated 1887) [5]: 1850 MFI
- pSTAT3 MFI, CD4 T cells, 0.1 nM (unstimulated 1887) [5]: 2210 MFI
- pSTAT3 MFI, CD4 T cells, 1 nM (unstimulated 1887) [5]: 4730 MFI
- pSTAT3 MFI, CD4 T cells, 10 nM (unstimulated 1887) [5]: 7240 MFI
- pSTAT3 MFI, CD4 T cells, 100 nM (unstimulated 1887) [5]: 7070 MFI
- pSTAT3 MFI, NK cells, 0.0001 nM (unstimulated 1315) [6]: 1220 MFI
- pSTAT3 MFI, NK cells, 0.001 nM (unstimulated 1315) [6]: 1230 MFI
- pSTAT3 MFI, NK cells, 0.01 nM (unstimulated 1315) [6]: 1220 MFI
- pSTAT3 MFI, NK cells, 0.1 nM (unstimulated 1315) [6]: 1250 MFI
- pSTAT3 MFI, NK cells, 1 nM (unstimulated 1315) [6]: 1520 MFI
- pSTAT3 MFI, NK cells, 10 nM (unstimulated 1315) [6]: 2040 MFI
- pSTAT3 MFI, NK cells, 100 nM (unstimulated 1315) [6]: 2130 MFI
B1: DR465(DR240-DR231) (bispecific antibody)
chain: QVQLQESGGGSVQAGGSLRLSCGASGYTYSSYCMGWFRQVPGKEREGVAVIDSDGSTSYADSVKGRFTISKDNGKNTLYLQMNSLKPEDTAMYYCAADLGHYRPPCGVLYLGMDYWGKGTQVTVSSGGGSQVQLQESGGGSVQAGGSLRLSCTASGFTFDDREMNWYRQAPGNECELVSTISSDGSTYYADSVKGRFTISQDNAKNTVYLQMDSVKPEDTAVYYCAADFMIAIQAPGAGCWGQGTQVTVSSASHHHHHH

- pSTAT3 MFI, CD8 T cells, 0.0001 nM (unstimulated 1446) [1]: 1400 MFI
- pSTAT3 MFI, CD8 T cells, 0.001 nM (unstimulated 1446) [1]: 1420 MFI
- pSTAT3 MFI, CD8 T cells, 0.01 nM (unstimulated 1446) [1]: 1420 MFI
- pSTAT3 MFI, CD8 T cells, 0.1 nM (unstimulated 1446) [1]: 1640 MFI
- pSTAT3 MFI, CD8 T cells, 1 nM (unstimulated 1446) [1]: 3280 MFI
- pSTAT3 MFI, CD8 T cells, 10 nM (unstimulated 1446) [1]: 4610 MFI
- pSTAT3 MFI, CD8 T cells, 100 nM (unstimulated 1446) [1]: 4400 MFI
- pSTAT3 MFI, B cells, 0.0001 nM (unstimulated 1193.5) [2]: 1110 MFI
- pSTAT3 MFI, B cells, 0.001 nM (unstimulated 1193.5) [2]: 1120 MFI
- pSTAT3 MFI, B cells, 0.01 nM (unstimulated 1193.5) [2]: 1110 MFI
- pSTAT3 MFI, B cells, 0.1 nM (unstimulated 1193.5) [2]: 1110 MFI
- pSTAT3 MFI, B cells, 1 nM (unstimulated 1193.5) [2]: 1170 MFI
- pSTAT3 MFI, B cells, 10 nM (unstimulated 1193.5) [2]: 1340 MFI
- pSTAT3 MFI, B cells, 100 nM (unstimulated 1193.5) [2]: 1280 MFI
- pSTAT3 MFI, B cells, 100 nM (unstimulated 1045) [3]: 1140 MFI
- pSTAT3 MFI, CD4+ T cells, 100 nM (unstimulated 1778) [3]: 6240 MFI
- pSTAT3 MFI, CD8+ T cells, 100 nM (unstimulated 1288) [3]: 4220 MFI
- pSTAT3 MFI, Monocytes, 100 nM (unstimulated 1787) [3]: 1940 MFI
- pSTAT3 MFI, NK cells, 100 nM (unstimulated 1149) [3]: 1700 MFI
- pSTAT3 MFI, Monocytes, 0.0001 nM (unstimulated 2116) [4]: 2010 MFI
- pSTAT3 MFI, Monocytes, 0.001 nM (unstimulated 2116) [4]: 2030 MFI
- pSTAT3 MFI, Monocytes, 0.01 nM (unstimulated 2116) [4]: 2000 MFI
- pSTAT3 MFI, Monocytes, 0.1 nM (unstimulated 2116) [4]: 1990 MFI
- pSTAT3 MFI, Monocytes, 1 nM (unstimulated 2116) [4]: 2030 MFI
- pSTAT3 MFI, Monocytes, 10 nM (unstimulated 2116) [4]: 2230 MFI
- pSTAT3 MFI, Monocytes, 100 nM (unstimulated 2116) [4]: 2210 MFI
- pSTAT3 MFI, CD4 T cells, 0.0001 nM (unstimulated 1887) [5]: 1800 MFI
- pSTAT3 MFI, CD4 T cells, 0.001 nM (unstimulated 1887) [5]: 1860 MFI
- pSTAT3 MFI, CD4 T cells, 0.01 nM (unstimulated 1887) [5]: 1860 MFI
- pSTAT3 MFI, CD4 T cells, 0.1 nM (unstimulated 1887) [5]: 2250 MFI
- pSTAT3 MFI, CD4 T cells, 1 nM (unstimulated 1887) [5]: 4600 MFI
- pSTAT3 MFI, CD4 T cells, 10 nM (unstimulated 1887) [5]: 6800 MFI
- pSTAT3 MFI, CD4 T cells, 100 nM (unstimulated 1887) [5]: 6200 MFI
- pSTAT3 MFI, NK cells, 0.0001 nM (unstimulated 1315) [6]: 1230 MFI
- pSTAT3 MFI, NK cells, 0.001 nM (unstimulated 1315) [6]: 1260 MFI
- pSTAT3 MFI, NK cells, 0.01 nM (unstimulated 1315) [6]: 1250 MFI
- pSTAT3 MFI, NK cells, 0.1 nM (unstimulated 1315) [6]: 1260 MFI
- pSTAT3 MFI, NK cells, 1 nM (unstimulated 1315) [6]: 1530 MFI
- pSTAT3 MFI, NK cells, 10 nM (unstimulated 1315) [6]: 2000 MFI
- pSTAT3 MFI, NK cells, 100 nM (unstimulated 1315) [6]: 1940 MFI
B2: DR471(DR241-DR231) (bispecific antibody)
chain: QVQLQESGGGSVQAGGSLRLSCAASGYSNCSYDMTWYRQAPGKEREFVSAIHSDGSTRYADSVKGRFFISQDNAKNTVYLQMNSLKPEDTAMYYCKTDPLHCRAHGGSWYSVRANYWGQGTQVTVSSGGGSQVQLQESGGGSVQAGGSLRLSCTASGFTFDDREMNWYRQAPGNECELVSTISSDGSTYYADSVKGRFTISQDNAKNTVYLQMDSVKPEDTAVYYCAADFMIAIQAPGAGCWGQGTQVTVSSASHHHHHH
